Test results published in PMC2114792.

How the values were obtained:
[1] = molecular target: mouse hexabrachion (mouse (endogenous in 3T3 cells)) (UniProt Q80YX1); assay: rotary shadowing electron microscopy
[2] = molecular target: rat hexabrachion (rat (endogenous in normal rat kidney cells)); assay: rotary shadowing electron microscopy

| Substance | stoichiometry N [1] | stoichiometry N [2] |
| --- | --- | --- |
| mouse hexabrachion, Q80YX1 23-2110 | 6 | – |
| rat hexabrachion | – | 6 |
